This is an account of results in publication PMC11083479, “A Multi-Faceted Binding Assessment of Aptamers Targeting the SARS-CoV-2 Spike Protein”.

Like-named read-outs stand apart in the source and are kept apart here.

The target in data set [1] is T1, SARS-CoV-2 trimeric spike, WT, His-tag (SARS-CoV-2 (WT), UniProt P0DTC2). The data set is described as follows: BLI. Conditions: protein: recombinant; tags: 8xHis (flow cytometry); His. In general terms: A flow cytometer gives signals particle by particle.
For data set [2], the target named is SARS-CoV-2 spike RBD, WT, His-tag (SARS-CoV-2 (WT), UniProt P0DTC2 319-541). The experiment in a line: BLI; BLI: PBS pH 7.4, 1 mM MgCl2 ([…]; flow cytometry 25 C ([…]. For orientation: BLI is a label-free optical method that tracks binding on a fibre tip over time.
The target in data set [3] is SARS-CoV-2 trimeric spike, WT, C-tag (SARS-CoV-2 (WT), UniProt P0DTC2). The data set is described as above. Conditions: protein: recombinant; tags: C-tag.
The target in data set [4] is SARS-CoV-2 spike S1, WT, His-tag (SARS-CoV-2 (WT), UniProt P0DTC2 16-685). The experiment in a line: BLI. To be noted: protein: recombinant; tags: His.
The target in data set [5] is T1, SARS-CoV-2 trimeric spike, WT, His-tag. The experiment in a line: ELONA. To be noted: protein: recombinant; tags: 8xHis (flow cytometry); His.
Data set [6] shares this target. The experiment in a line: flow cytometry. To be noted: protein: recombinant, tags: 8xHis (flow cytometry).
The target in data set [7] is SARS-CoV-2 spike RBD, WT, C-tag (SARS-CoV-2 (WT), UniProt P0DTC2 319-591). The experiment in a line: BLI; BLI: PBS pH 7.4, 1 mM MgCl2 ([…]; flow cytometry 25 C ([…].
The target of data set [8] is T2, SARS-CoV-2 trimeric spike, WT, His-tag (SARS-CoV-2 (WT), UniProt P0DTC2 14-1208). To be noted: protein: recombinant, tags: 8xHis (flow cytometry), chain copies: 3, label: with or without biotin, SA-ATTO647N in flow cytometry.
Data set [9] deals with SARS-CoV-2 spike S1, WT, His-tag (SARS-CoV-2 (WT), UniProt P0DTC2 16-685). The experiment in a line: BLI. To be noted: protein: recombinant; tags: His; label: with or without biotin; SA-ATTO647N in flow cytometry.
Data set [10] addresses SARS-CoV-2 spike RBD, WT, His-tag (SARS-CoV-2 (WT), UniProt P0DTC2 319-541). The data set is described as follows: BLI; BLI: PBS pH 7.4, 1 mM MgCl2 ([…]; flow cytometry 25 C ([…]. To be noted: protein: recombinant; tags: His; label: with or without biotin; SA-ATTO647N in flow cytometry.
Data set [11] has as its target SARS-CoV-2 spike RBD, WT, C-tag (SARS-CoV-2 (WT), UniProt P0DTC2 319-591). The description is as above. Conditions: protein: recombinant; tags: C-tag; label: with or without biotin; SA-ATTO647N in flow cytometry.
Data set [12] has as its target T1, SARS-CoV-2 trimeric spike, WT, His-tag. The data set is described as follows: flow cytometry; 37 C; non-binding control. To be noted: protein: recombinant, tags: 8xHis (flow cytometry).
Data set [13] has as its target chemokine CCL17, untagged (human, UniProt Q92583 24-94). The experiment in a line: ELONA; 200 nM aptamer; BLI: PBS pH 7.4, 1 mM MgCl2 (MSA aptamers: 50 mM HEPES pH 7.4, 6 mM KCl, 150 mM NaCl, 2.5 mM CaCl2, 2.5 mM MgCl2), 0.1 mg/mL BSA, 0.02% Tween-20; ELONA 25 C in. Conditions: protein: recombinant; tags: none; label: with or without biotin; SA-ATTO647N in flow cytometry.

Data set [14] concerns the target T3, ACE2, His-tag (UniProt Q9BYF1 18-740). The data set is described as above. To be noted: protein: recombinant; tags: His; label: with or without biotin; SA-ATTO647N in flow cytometry.
Data set [15] has as its target SARS-CoV-2 trimeric spike, WT, C-tag (SARS-CoV-2 (WT), UniProt P0DTC2 16-1208). To be noted: protein: recombinant; tags: C-tag; chain copies: 3; label: with or without biotin; SA-ATTO647N in flow cytometry.
The target in data set [16] is T2, SARS-CoV-2 trimeric spike, WT, His-tag. The experiment in a line: ELONA; abolished by 0.1 mg/mL dextran sulfate. To be noted: protein: recombinant, tags: 8xHis (flow cytometry), chain copies: 3, label: with or without biotin, SA-ATTO647N in flow cytometry.
The target in data set [17] is T3, ACE2, His-tag. The data set is described as follows: ELONA. Conditions: protein: recombinant; tags: His; label: with or without biotin; SA-ATTO647N in flow cytometry.

T3 sequence (Q9BYF1 18-740): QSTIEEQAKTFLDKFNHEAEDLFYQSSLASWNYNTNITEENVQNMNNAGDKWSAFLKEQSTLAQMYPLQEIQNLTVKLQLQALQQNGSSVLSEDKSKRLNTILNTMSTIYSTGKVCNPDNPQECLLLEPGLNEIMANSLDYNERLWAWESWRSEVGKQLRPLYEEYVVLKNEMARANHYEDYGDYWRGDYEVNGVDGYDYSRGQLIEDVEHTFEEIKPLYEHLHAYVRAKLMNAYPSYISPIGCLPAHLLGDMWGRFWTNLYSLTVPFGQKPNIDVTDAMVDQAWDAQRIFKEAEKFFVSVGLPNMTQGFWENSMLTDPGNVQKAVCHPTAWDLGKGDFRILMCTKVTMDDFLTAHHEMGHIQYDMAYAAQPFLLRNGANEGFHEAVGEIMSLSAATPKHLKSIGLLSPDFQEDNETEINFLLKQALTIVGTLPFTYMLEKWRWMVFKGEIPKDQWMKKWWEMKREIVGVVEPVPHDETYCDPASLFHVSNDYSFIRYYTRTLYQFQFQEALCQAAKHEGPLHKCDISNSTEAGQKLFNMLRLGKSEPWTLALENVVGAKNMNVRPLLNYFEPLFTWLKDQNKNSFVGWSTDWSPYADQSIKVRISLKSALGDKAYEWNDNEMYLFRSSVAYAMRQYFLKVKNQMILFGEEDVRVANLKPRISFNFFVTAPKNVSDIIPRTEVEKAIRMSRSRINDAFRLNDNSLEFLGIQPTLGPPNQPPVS
Chain of chemokine CCL17, untagged (Q92583 24-94): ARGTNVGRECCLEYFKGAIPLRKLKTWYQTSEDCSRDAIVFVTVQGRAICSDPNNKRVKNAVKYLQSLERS

On to TCCGGTTAATTTATGCTCTACCCGTCCACCTACCGGA (ssDNA) [MSA1-T3], for which the figures for the binding result in data set [1], in data set [2] and in data set [3] were “binds”, “no binding” and “no binding”, respectively.

B1: Aptamer-1 (ssDNA)
DNA: ATCCAGAGTGACGCAGCATCGAGTGGCTTGTTTGTAATGTAGGGTTCCGGTCGTGGGTTGGACACGGTGGCTTAGT
For B1, the binding result in data set [4] was “binds”; in [1], “binds”; in data set [2], “binds”; in [3], “no binding”.

For CAACCCATGGTAGGTATTGCTTGGTAGGGATAGTGGGCTTG (ssDNA) [SP6.41], the binding result in [4] is “no binding”; in data set [5] it was “binds”; in [2], “no binding”; in data set [3] it was “binds”.

B2: RBD-PB6 (XNA)
RNA: GGGGCCACCAACGACAUUUGUAAUUCCUGGACCGAUACUUCCGUCAGGACAGAGGUUGAUAUAAAUAGUGCCCAUGGAUCC
modifications: 2'-F-modified RNA
Take B2: the binding result in data set [6], in data set [4], in [2], in data set [7] and in data set [3] was “binds” each time.

B3: CoV2-RBD-1C (ssDNA)
DNA: CAGCACCGACCTTGTGCTTTGGGAGTGCTGGTCCAAGGGCGTTAATGGACA
Regarding B3, the binding result in data set [8] is listed as “binds”; in data set [9], “binds”; in data set [10] it was “binds”; in data set [11], “no binding”.

B4: Aptamer-2 (ssDNA)
DNA: ATCCAGAGTGACGCAGCAATTACCGATGGCTTGTTTGTAATGTAGGGTTCCGTCGGATTGGACACGGTGGCTTAGT
For the molecule B4, the binding result is “binds” in data set [4], “binds” in data set [1], “binds” in [2] and “no binding” in data set [3].

For CCCATGGTAGGTATTGCTTGGTAGCGATAGTGGG (ssDNA) [SP6.34C], the binding result in data set [12] is on record as “no binding”.

Turning to CTTCCACGGGTTTGGCGTCGGGCCTGGCGGGGGGATAGTGCGGTGGAAG (ssDNA) [MSA5-T4], the binding result is given as “no binding” in data set [13]; “no binding” with ACE2, His-tag [14]; “no binding” in data set [15]; “binds” in data set [9]; “binds” in data set [16]; “no binding” in data set [11].

B5: nCoV-S1-A2 (ssDNA)
DNA: AGCAGCACAGAGGTCAGATGGCAGCTAAGCAGGCGGCTCACAAAACCATTCGCATGCGGCCCTATGCGTGCTACCGTGAA
Turning to B5, the binding result in [2] is recorded as “no binding”.

B6: CoV2-RBD-4C (ssDNA)
DNA: ATCCAGAGTGACGCAGCATTTCATCGGGTCCAAAAGGGGCTGCTCGGGATTGCGGATATGGACACGT
Consider B6, for which the binding result is on record as “binds” in data set [8]; “binds” in data set [9]; “binds” in the data set with ACE2, His-tag [17]; “binds” in [10]; “no binding” in [11].

Turning to CGCAGCACCCAAGAACAAGGACTGCTTAGGATTGCGATAGGTTCGG (ssDNA) [CoV2-6C3], the binding result in [15] was “binds”; in data set [8], “binds”; in data set [9], “binds”; in [10], “binds”; in data set [11], “no binding”.
